The results in this text go back to patent publication US20140234868A1, “USE FOR GLYCOLIPOPROTEIN GINTONIN, ISOLATED AND IDENTIFIED FROM GINSENG, AS A NATURAL MEDICAL-PLANT DERIVED LIGAND” (KONKUK UNIVERSITY INDUSTRIAL COOPERATION CORP., priority 2011, published 2014).

Holding throughout (type): cell-based
The target in one experiment is LPA2 receptor (Homo sapiens, UniProt Q9HBW0). Put plainly: Intracellular free Ca2+ (Fura-2AM) in LPA2-expressing B103 cells. Also on record: host or cells: B103 rat neuroblastoma cells. The source says: LPA family receptors are endogenous to cells of most organs. B103 rat neuroblastoma cells, known as LPA receptor-null cells (Valentine et al., Biochim Biophys Acta 1780. 597-605) were transiently transfected with a plasmid (vector) carrying one of genes coding for LPA1(edg-2), LPA2(edg-4), LPA3(edg-7), LPA4, LPA5 and LPA6 receptors or a plasmid carrying none of them (empty vector). Two or three days after transfection, the cells are suspended, and made permeable. Then, the permeable cells are treated with Fura-2AM, a fluorescent dye binding to calcium, and then with gintonin, followed by spectrofluorephotometry to examine whether gintonin induces an increase in intracellular free Ca^2+ level.
(1) preparing large quantities of plasmids carrying respective LPA family receptor genes and an empty plasmid carrying none of them through amplification and purification (maxi-preparation); (2) verifying the expression of LPA receptors wherein B103 cells are transfected with haematoglutin (HA)-tagged LPA receptors, and then subjected to Western blotting analysis using an anti-HA primary antibody and a horseradish peroxidase (HRP)-conjugated secondary antibody to develop a color; (3) verifying the expression of LPA receptors wherein B1-3 cells are transfected with haematoglutin (HA)-tagged LPA receptors, and then subjected to confocal laser microscopy using an anti-HA antibody and a fluorescence dye Cy3-conjugated secondary antibody; (4) transfecting the empty plasmid and each of the plasmids carrying LPA family receptor genes into B103 cells; (5) treating the transfected B103 cells with trypsin (0.05% trypsin with EDTA, w/v) 2-3 days post-transfection, to give a cell suspension; (6) culturing the suspended B103 cells with Fura-2AM (2.5 μM); and (7) treating the suspended B103 cells with gintonin and quantifying a change in intracellular free Ca^2+ level in a cuvette by spectrofluorephotometry using Fura-2AM.
Human LPA (lysophosphatidic acid) receptor subtypes, orphan GPCRs (G protein coupled receptors) and plasmids carrying GPCRs were purchased from Missouri S&T resource Center (www.cDNA.org).
The transient transfection of LPA receptor subtypes was carried out with the aid of Lipofectamine 2000 of Invitrogen. A plasmid (10.8 μg) carrying each LPA receptor (LPA1, LPA2, LPA3, LPA4, LPA5, and LPA6) was transfected into B103 cells grown in 10-cm dishes, and incubated for 2 days prior for use in experiments.
In this Example, gintonin, or ginsenoside Rb1 or Rg1 was examined for its ability to induce a transient increase of [Ca^2+]i in Fura-2AM-loaded B103 cells which were transfected with LPA receptors and in Fura-2AM-loaded B103 cells which were not transfected with LPA receptors. […]

The next experiment has as its system NMDA receptor. In words: NMDA receptor activity in oocytes expressing active or inactive RPTP alpha. The note with it: oocytes expressing active or inactive RPTP α. On the procedure: Two-electrode voltage-clamp recordings were obtained from individual oocytes placed in a small Plexiglas net chamber (5 ml). Electrophysiological experiments were performed using microelectrodes filled with 3 M KCl (resistance of 0.2-0.7 MΩ) and an Oocyte Clamp amplifier (OC-725C; Warner Instrument, Hamden, Conn.). For physiological recordings of NMDA receptor activity, oocytes were first perfused with Mg^2+-free ND96 (mM: 96 NaOH, 2 KOH, 0.3 CaCl2, 5 HEPES pH 7.6 with methanesulfonic acid). Then, the oocytes were clamped at −60 mV holding potential, followed by recoding NMDA currents (induced by administering […]) (Zheng et al., J Neurosci. 17, 8676-8686, 1997; Chang and Kuo, J Neurosci. 28, 1546-1556, 2008).

In another experiment the target is T1, GPR35 (Homo sapiens, UniProt Q9HC97).
T1 construct: host or cells: B103 rat neuroblastoma cells
In words: Intracellular free Ca2+ in GPR35-expressing B103 cells. The source says:
Optionally, the method may further comprise (8) pre-treating the suspended B103 cells with LPA receptor antagonists and LPA receptor-mediated signaling-relevant drugs (e.g., pertussis toxin, PLC inhibitors, IP3 receptor antagonists) to examine whether the cells decrease or increase in intracellular free Ca^2+, prior to treatment with gintonin; (9) performing site-directed mutagenesis to identify an amino acid of LPA receptors with which gintonin interact to activate the LPA; and (10) examining whether gintonin activates orphan GPCRs including GPR35 and GPR87, and free fatty acid GPCRs including GPR40, GPR41, GPR43 and GPR120, all known for activation by LPA.
In addition, GPR35 (Oka et al., Biochem Biophys Res Commun. 395, 232-237, 2010) and GPR87 (Tabata et al., Biochem Biophys Res Commun. 363, 861-866, 2007), both known as orphan GPCRs reacting with LPA, and GPR40, GPR41, GPR43 and GPR120 (Hirasawa et al., Biol Pharm Bull. 31, 1847-1851, 2008), all known as fatty acid receptors reacting with free fatty acids, were expressed in B103 cells when gintonin activity was tested.

Chain of LPA2 receptor (Q9HBW0 whole entry): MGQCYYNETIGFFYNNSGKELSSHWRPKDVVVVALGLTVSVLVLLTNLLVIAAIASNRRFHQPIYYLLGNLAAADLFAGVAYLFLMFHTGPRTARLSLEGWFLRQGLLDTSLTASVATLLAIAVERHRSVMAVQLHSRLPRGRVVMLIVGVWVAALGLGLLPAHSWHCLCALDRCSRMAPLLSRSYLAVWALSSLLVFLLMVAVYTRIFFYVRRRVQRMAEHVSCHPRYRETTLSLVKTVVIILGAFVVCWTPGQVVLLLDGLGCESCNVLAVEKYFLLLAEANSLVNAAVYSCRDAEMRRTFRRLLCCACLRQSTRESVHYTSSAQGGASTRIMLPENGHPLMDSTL
T1 sequence (Q9HC97 whole entry): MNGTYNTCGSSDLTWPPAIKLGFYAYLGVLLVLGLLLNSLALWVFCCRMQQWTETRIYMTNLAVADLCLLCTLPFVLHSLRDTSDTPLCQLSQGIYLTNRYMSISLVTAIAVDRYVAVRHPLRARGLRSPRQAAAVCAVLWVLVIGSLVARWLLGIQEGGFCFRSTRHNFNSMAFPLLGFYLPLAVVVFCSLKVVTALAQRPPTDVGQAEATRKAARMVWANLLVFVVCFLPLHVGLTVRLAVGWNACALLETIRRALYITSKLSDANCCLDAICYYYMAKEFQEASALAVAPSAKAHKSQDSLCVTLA

B1: gintonin: ginseng-derived glycolipoprotein; structural protein of ginseng major latex-like protein (MLP151) and ribonuclease-like storage proteins; crude gintonin used in tests (protein)
chain 1: MGLTGKLICQTGIKSDGDVFHELFGTRPHHVPNITPANIQGCDLHEGEFGKVGSVVIWNYSIDGNAMIAKEEIVAIDEEDKSVTFKVVEGHLFEEFKSIVFSVHVDTKGEDNLVTWSIDYEKLNESVKDPTSYLDFLLSVTRDIEAHHLPK
chain 2: RSDYPWAMFALRLQWPAGFCEVNNACDTKSLLNTFTIHGLYPYNAKGTPALYCDGTAFDVNSVSDFLAEMHLAWPSHETNTEDIQFWEHEWKKHGRCSEALLKQTDYFRTALAFRKAFDIVGLLNQEGIYPNNDLYRPKMIKEAIKKHLNAVPEIDFTKNENSEYVLTDINVCVNQQATRFVDCPTDDATDDYRLKFVRLPSKMKFADPRTNSII
With B1, in the experiment with LPA2 receptor (LPA2 receptor, B103 cells, read-out: EC50, LPA receptor-mediated intracellular calcium increase), the half-maximal effective concentration (EC50) came out at 4 ± 0.4 pM. The “increase in intracellular calcium level” value in the experiment with LPA2 receptor (gintonin 1 μg/ml, LPA2-expressing B103 cells) stood at 208.3 ± 13.0 µM. In addition, the “NMDA receptor activity when treated with gintonin” value in the experiment with NMDA receptor was “NMDA receptor activity at a low level”. Also, the “increase of intracellular calcium level” value with GPR35 was “increase an intracellular calcium level in GPR35-expressing B103 cells, but slightly”.
